Results: PMC12107432 (Nucleic Acids Research, 2025)
Several values for one entry are separate records, joined by “and”; a condition that tells them apart may be missing. Identical values can stand only once. Like-named read-outs stand apart in the source and are kept apart here.

Experiments:
[1] = target: YhaM ortholog of Staphylococcus aureus (SaYhaM) (Staphylococcus aureus); assay: SEC
[2] = target: T1, YhaM dimers (Bacillus subtilis, UniProt O07521 1-314); assay: BLI
T1 sequence: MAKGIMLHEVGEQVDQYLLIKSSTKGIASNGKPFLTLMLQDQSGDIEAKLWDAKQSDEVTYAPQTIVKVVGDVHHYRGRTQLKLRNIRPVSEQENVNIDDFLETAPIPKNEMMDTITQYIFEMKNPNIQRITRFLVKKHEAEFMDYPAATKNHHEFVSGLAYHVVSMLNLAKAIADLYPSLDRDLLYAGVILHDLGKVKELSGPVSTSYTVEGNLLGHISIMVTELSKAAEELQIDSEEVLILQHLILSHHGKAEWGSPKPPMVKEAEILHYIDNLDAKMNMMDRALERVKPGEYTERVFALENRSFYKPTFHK

[3] = target: the molecule itself; assay: mass photometry
[4] = target: the molecule itself; assay: mass photometry; remark: listed apart in the source
[5] = target: the molecule itself; assay: mass photometry; remark: listed apart in the source
[6] = target: T2, YhaM (BsYhaM) (Bacillus subtilis (strain DK1042 / NCIB …, UniProt O07521 1-314)); assay: BLI
T2 sequence: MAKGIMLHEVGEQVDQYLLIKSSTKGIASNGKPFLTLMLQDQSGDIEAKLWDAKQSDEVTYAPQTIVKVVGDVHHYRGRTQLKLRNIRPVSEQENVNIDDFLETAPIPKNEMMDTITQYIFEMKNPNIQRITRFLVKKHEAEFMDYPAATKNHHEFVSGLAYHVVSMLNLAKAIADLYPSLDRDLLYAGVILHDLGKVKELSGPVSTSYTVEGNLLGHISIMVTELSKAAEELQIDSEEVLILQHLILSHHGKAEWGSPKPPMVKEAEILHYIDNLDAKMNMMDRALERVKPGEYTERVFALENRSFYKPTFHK

[7] = target: T3, YhaM H193A/D194A (Bacillus subtilis, UniProt O07521 1-314, H193A;D194A); assay: BLI
T3 sequence: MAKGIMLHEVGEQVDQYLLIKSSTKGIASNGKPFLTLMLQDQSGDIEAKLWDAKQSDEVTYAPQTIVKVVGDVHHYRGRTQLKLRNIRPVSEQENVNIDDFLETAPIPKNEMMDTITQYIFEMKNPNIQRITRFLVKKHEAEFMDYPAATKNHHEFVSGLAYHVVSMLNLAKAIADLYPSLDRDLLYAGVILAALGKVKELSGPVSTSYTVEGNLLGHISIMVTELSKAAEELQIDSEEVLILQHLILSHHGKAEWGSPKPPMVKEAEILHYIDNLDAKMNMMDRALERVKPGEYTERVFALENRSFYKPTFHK

## YhaM ortholog of Staphylococcus aureus (SaYhaM) (enzyme)
[1]
  stoichiometry N: 6

B1: ssDNA loop (ssDNA)
DNA: TTTTTTTTTTTTTTTTTTTTTTCCCACAACAAGTCCAACGCAAACGGCCACCCCCCCAACAACAATTTTT
[2]
  binding result: binds

B2: YhaM W51A (Bacillus subtilis), OB domain variant (enzyme, UniProt O07521 1-314, looked up)
chain: MAKGIMLHEVGEQVDQYLLIKSSTKGIASNGKPFLTLMLQDQSGDIEAKLADAKQSDEVTYAPQTIVKVVGDVHHYRGRTQLKLRNIRPVSEQENVNIDDFLETAPIPKNEMMDTITQYIFEMKNPNIQRITRFLVKKHEAEFMDYPAATKNHHEFVSGLAYHVVSMLNLAKAIADLYPSLDRDLLYAGVILHDLGKVKELSGPVSTSYTVEGNLLGHISIMVTELSKAAEELQIDSEEVLILQHLILSHHGKAEWGSPKPPMVKEAEILHYIDNLDAKMNMMDRALERVKPGEYTERVFALENRSFYKPTFHK
[3]
  stoichiometry N: 2
[4]
  stoichiometry N: 6

B3: YhaM Y76A (Bacillus subtilis), OB domain variant (enzyme, UniProt O07521 1-314, looked up)
chain: MAKGIMLHEVGEQVDQYLLIKSSTKGIASNGKPFLTLMLQDQSGDIEAKLWDAKQSDEVTYAPQTIVKVVGDVHHARGRTQLKLRNIRPVSEQENVNIDDFLETAPIPKNEMMDTITQYIFEMKNPNIQRITRFLVKKHEAEFMDYPAATKNHHEFVSGLAYHVVSMLNLAKAIADLYPSLDRDLLYAGVILHDLGKVKELSGPVSTSYTVEGNLLGHISIMVTELSKAAEELQIDSEEVLILQHLILSHHGKAEWGSPKPPMVKEAEILHYIDNLDAKMNMMDRALERVKPGEYTERVFALENRSFYKPTFHK
[4]
  stoichiometry N: 6

B4: YhaM H193A/D194A (Bacillus subtilis), HD motif variant (enzyme, UniProt O07521 1-314, looked up)
chain: MAKGIMLHEVGEQVDQYLLIKSSTKGIASNGKPFLTLMLQDQSGDIEAKLWDAKQSDEVTYAPQTIVKVVGDVHHYRGRTQLKLRNIRPVSEQENVNIDDFLETAPIPKNEMMDTITQYIFEMKNPNIQRITRFLVKKHEAEFMDYPAATKNHHEFVSGLAYHVVSMLNLAKAIADLYPSLDRDLLYAGVILAALGKVKELSGPVSTSYTVEGNLLGHISIMVTELSKAAEELQIDSEEVLILQHLILSHHGKAEWGSPKPPMVKEAEILHYIDNLDAKMNMMDRALERVKPGEYTERVFALENRSFYKPTFHK
[5]
  stoichiometry N: 2
[4]
  stoichiometry N: 4 and 6

## GTTAATTAAGTTTTAACCTTTAAGCTGTAATAGGGAGTTT (ssDNA) [Bli DNA 40-nt]
[6]
  binding result: binds
[7]
  binding result: binds
